T1: human galectin-10-His (recombinant human galectin-10 with TEV-cleavable N-terminal His-tag) (human)
T1 construct: SEC-MALLS: dimer in solution; also called Gal10-His; humanGal10-His
T1 chain: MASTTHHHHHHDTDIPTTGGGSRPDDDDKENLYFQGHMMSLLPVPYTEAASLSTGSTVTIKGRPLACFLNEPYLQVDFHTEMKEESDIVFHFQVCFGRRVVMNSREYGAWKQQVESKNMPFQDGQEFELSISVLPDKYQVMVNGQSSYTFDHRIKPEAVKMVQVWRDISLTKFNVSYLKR

T2: TEV-cleaved wild-type recombinant human galectin-10 (soluble, in Fab complexes, or as recombinant galectin-10 … (human, UniProt Q05315 1-142))
T2 sequence: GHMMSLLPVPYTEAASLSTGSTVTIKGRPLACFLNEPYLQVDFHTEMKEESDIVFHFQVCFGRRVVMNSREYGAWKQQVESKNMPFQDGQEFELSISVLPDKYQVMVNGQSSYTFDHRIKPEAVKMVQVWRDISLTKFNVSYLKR


Key:
[1] = target: T1, human galectin-10-His (recombinant …); test: BLI tandem on galectin-10-His; competitor: saturating 6E10 mIgG1 (10 ug/mL)
Description: (§1) In order to identify the galectin-10 binding sites of the different clones, an epitope mapping method (TANDEM), using the BLI technology, was established. Briefly, the galectin-10-His was captured on anti-HIS 1K sensor tips, before incubation with an excess of one antibody (called the “saturating” antibody) then directly transferred to a solution containing the “competitor” antibody at a suboptimal concentration. If the “saturating” and the competitor antibody bind to the same binding sites, no binding of “competitor” will be detected (expressed in nm shift).

[2] = target: T1, human galectin-10-His (recombinant …); test: BLI tandem on galectin-10-His; competitor: saturating 6A05 mIgG1 (10 ug/mL)
Description: as §1

[3] = target: T1, human galectin-10-His (recombinant …); test: BLI tandem on galectin-10-His; competitor: saturating 1C09 mIgG1 (10 ug/mL)
Description: as §1

[4] = target: T1, human galectin-10-His (recombinant …); test: BLI tandem on galectin-10-His; competitor: saturating 2F09 mIgG1 (10 ug/mL)
Description: as §1

[5] = target: T1, human galectin-10-His (recombinant …); test: ELISA, mouse IgG1 on coated galectin-10-His (0.2 ug/mL)
Description: In a similar setup to that used during the characterization of the scFv-human Fc molecules, the relative binding affinities of the 10 mouse IgG1 antibodies were analyzed by ELISA. A Maxisorp plate was coated overnight with 0.2 μg/mL of galectin-10-His. Then a serial dilution of each clone (from 100 nM, dilution 1/4, 12 points of dilutions) was incubated on coated galectin-10. After several washing steps, detection of the bound mouse IgG1 was carried out with an anti-mouse Fc-HRP antibody. Absorbance was measured at 450 nm (reference at 620 nm) with Tecan instrument. A mouse IgG1 isotype control was used as negative control. A polyclonal anti-galectin-10 antibody was used as positive control for the coating of galectin-10. The raw data (OD values) were plotted on GraphPad Prism 7.01. The EC50 values for each antibody, calculated with a non-linear regression (log(agonist) vs. response Variable slope (four parameters)), are reported in Table 7 below.

[6] = target: T1, human galectin-10-His (recombinant …); test: BLI tandem on galectin-10-His; competitor: saturating 2C07 mIgG1 (10 ug/mL)
Description: as §1

[7] = target: T1, human galectin-10-His (recombinant …); test: BLI tandem on galectin-10-His; competitor: saturating 6F06 mIgG1 (10 ug/mL)
Description: as §1

[8] = target: T1, human galectin-10-His (recombinant …); test: BLI tandem on galectin-10-His; competitor: saturating 6B06 mIgG1 (10 ug/mL)
Description: as §1

[9] = target: T1, human galectin-10-His (recombinant …); test: BLI tandem on galectin-10-His; competitor: saturating 6A08 mIgG1 (10 ug/mL)
Description: as §1

[10] = target: T1, human galectin-10-His (recombinant …); test: BLI tandem on galectin-10-His; buffer in place of the saturating antibody
Description: as §1

[11] = target: T1, human galectin-10-His (recombinant …); test: SPR Biacore T3000, mouse IgG1 captured by anti-mouse Fc, galectin-10-His as analyte
Description: The binding capacity of the mouse IgG1 antibodies to galectin-10 was analyzed on Biacore T3000. For this purpose, a capture approach was set up. A CM5 Chip was coated with polyclonal anti-mouse Fc at 8000 RU, then a fixed concentration of the mouse IgG1 antibody panel (1.5 μg/mL), diluted in HBS-EP pH7.4, was captured to reach a binding signal around 150 RU. Finally, a serial dilution of galectin-10-His (serial dilution, 1 over 2 from 5 μg/mL) diluted in HBS-EP pH7.4 was injected. Raw data were analyzed via BIA evaluation software with a blank subtraction (4-3). The kd/KD and Rmax of each mAb to galectin-10-His was determined using the Fit Kinetics simultaneous ka/kd/Binding with mass transfer/Local Rmax on BIA evaluation software.

[12] = target: T1, human galectin-10-His (recombinant …); test: BLI tandem on galectin-10-His; competitor: saturating 4E08 mIgG1 (10 ug/mL)
Description: as §1

[13] = target: T1, human galectin-10-His (recombinant …); test: BLI tandem on galectin-10-His; isotype control as saturating antibody (10 ug/mL)
Description: as §1

[14] = target: T2, TEV-cleaved wild-type recombinant human …; test: cell-based or functional assay
[15] = target: T1, human galectin-10-His (recombinant …); test: BLI tandem on galectin-10-His; competitor: saturating 1D11 mIgG1 (10 ug/mL)
Description: as §1

| binding signal (nm) [1] | binding signal (nm) [2] | binding signal (nm) [3] | binding signal (nm) [4] | Bmax [5] | EC50 [5] | binding signal (nm) [6] | binding signal (nm) [7] | binding signal (nm) [8] | binding signal (nm) [9] | binding signal (nm) [10] | Kd [11] | koff [11] | binding signal (nm) [12] | binding signal (nm) [13] | 100% Solubilization of CLC (Conc uM) [14] | binding signal (nm) [15] | Binder |
| --- | --- | --- | --- | --- | --- | --- | --- | --- | --- | --- | --- | --- | --- | --- | --- | --- | --- |
| -0.04 nm | 0.04 nm | 0 nm | -0.01 nm | 2.95 OD | 0.08 nM | 0.03 nm | 0.04 nm | 0.04 nm | -0.01 nm | 0.8 nm | 0.5 nM | 0.00036 s⁻¹ | -0.05 nm | 0.73 nm | > 2.2 µM | 0.04 nm | 2C07 mouse IgG1 (antibody, V domains shown, VH on mouse IgG1 heavy chain constant domains (CH1-CH2-CH3), VL on mouse lambda light chain constant domain; also called 2C07 mIgG1) VH: ELQLVESGGGLVQPGGSLRLSCAASGFTFSSYAMSWVRQAPGKGLEWVSNINSGGGSTGYADSVKGRFTISRDNAKNTLYLQMNSLKPEDMAVYYCAKYLRTYYPNAAFGMDYWGKGTLVTVSS VL: QAVLTQPSAVSVSLGQTARITCQGGNFGRYYASWYQQKPGQAPVLVIYRDSERPSGIPERFSGSSSGDTATLTISGAQAEDEADYYCQSGRSSDNAVFGGGTHLTGL |
| 0 nm | 0.09 nm | 0.03 nm | 0 nm | 2.4 OD | 0.17 nM | 0.06 nm | 0.07 nm | 0.04 nm | 0.04 nm | 1.38 nm | 0.5 nM | 0.00082 s⁻¹ | 0.1 nm | 1.34 nm | 10.5 µM | 0.1 nm | 6E10 mouse IgG1 (antibody, V domains shown, also called 6E010; 6E10 mIgG1) VH: QLQLVESGGGLVQPGGSLRLSCAASGFTFSSYWMYWVRQAPGKGLEWVSAINTGGGSTYYADSVKGRFTISRDNAKNTLYLQMNSLKPEDTALYYCARAGSGVAGTGYDYWGQGTQVTVSS VL: QPVLNQPSAVSVSLGQTARITCQGGNFGYYYVSWYQQKPGQAPVLVIYRDSGRPSGIPERFSGSSSGDTATLTISGAQAEDEADYYCQSGSSSDNAVFGGGTHLTVL |
| -0.03 nm | 0.05 nm | 0 nm | 0 nm | 2.93 OD | 0.08 nM | 0.03 nm | 0.04 nm | 0.03 nm | 0 nm | 1.22 nm | 0.7 nM | 0.00487 s⁻¹ | 0.02 nm | 1.15 nm | 7.57 µM | 0.06 nm | 6F06 mouse IgG1 (antibody, V domains shown, also called 6F06 mIgG1) VH: QVQLVESGGGLVQPGGSLRLSCAASEFTFSRYSMSWVRQAPGKGLEWVSTINSGGGSTSYVDSVKGRFTISRDNAKNTLYLQMNSLKPEDTAVYYCTKSQGGISFSTQYGMDYWGKGTLVTVSS VL: NFMLTQPSAVSVSLGQTARITCQGGNFGRYYANWYQQKPGQAPVLVIYKDSERPSGIPERFSGSSSGDTATLTISGAQAEDESDYYCQSGSVSDNAVFGGGTHLAVL |
| -0.02 nm | 0.06 nm | 0.01 nm | 0 nm | 3.28 OD | 0.08 nM | 0.04 nm | 0.05 nm | 0.03 nm | 0.02 nm | 0.98 nm | 0.3 nM | 0.00306 s⁻¹ | 0.03 nm | 0.94 nm | > 10 µM | 0.07 nm | 6B06 mouse IgG1 (antibody, V domains shown, also called 6B06 mIgG1) VH: QVQRQESGPGLVKPSQTLSLTCTVSGGSITTNYYSWSWIRQPPGKGLEWIGYIAYSGSTSYSPSLKSRTSISRDTSNNQFSLQLSSVTPEDTAVYYCARSRSSPTTFGMDYWGKGTLVTVSS VL: SSALTQPSAVSVSLGQTARITCQGGNFGRYYVSWYTQKPGQAPVLVIYQDSERPTGIPERFSGSSSGDTATLTISGAQAEDEADYYCQSGTSSDNIVFGGGTHLTVL |
| -0.05 nm | 0.05 nm | 0 nm | 0 nm | 3.2 OD | 0.15 nM | 0.05 nm | 0.05 nm | 0.05 nm | -0.04 nm | 1.08 nm | 1 nM | 0.00067 s⁻¹ | -0.05 nm | 1.04 nm | > 10 µM | 0.05 nm | 6A08 mouse IgG1 (antibody, V domains shown, also called 6A08 mIgG1) VH: QVQLVESGGGLVQPGGSLRLSCAASGFTFSSYAMSWVRQAPGKGPEWVSAINRGGGSTYYADSVKGRFTISRDNAKNTLYLQMNSLKPEDAAVYYCATPGDRLWYYRYDYWGQGAQVTVSS VL: QTVVTQEPSLSVSPGGTVTLTCGLSSGSVTSSNYPGWYQQTPGQAPRLLIYNTNSRYSGVPNRFSGSISGNKAALIISGAQPEDEADYHCALNRVRGTYRVFGGGTHLTVL |

Source: patent publication US20190367619A1 (ARGENX, published 2019)
